Experimental data from patent US20230144192A1 (Sanofi, published 2023).

Molecular target: FcRn (UniProt P55899 24-297; P61769 21-119, limits assumed)
Assay: method not described; PBPK model input at pH 6.0, source given as 'Unpublished data'

Chain of FcRn (P55899 24-297 limits assumed, form in doubt, chain 1 of 2): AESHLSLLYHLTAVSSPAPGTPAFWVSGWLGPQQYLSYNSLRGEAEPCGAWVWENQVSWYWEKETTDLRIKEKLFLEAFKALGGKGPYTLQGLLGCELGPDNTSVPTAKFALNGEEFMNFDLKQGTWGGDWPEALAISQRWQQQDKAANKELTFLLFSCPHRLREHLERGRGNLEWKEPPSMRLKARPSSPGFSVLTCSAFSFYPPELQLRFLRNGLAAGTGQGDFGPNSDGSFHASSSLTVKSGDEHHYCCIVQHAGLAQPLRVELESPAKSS
Chain of FcRn (P61769 21-119 limits assumed, form in doubt, chain 2 of 2): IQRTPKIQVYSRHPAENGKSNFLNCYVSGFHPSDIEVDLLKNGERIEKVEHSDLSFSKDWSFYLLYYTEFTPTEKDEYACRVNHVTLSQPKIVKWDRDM

B1: Ab1 (antibody, human IgG4 S228P, kappa)
heavy: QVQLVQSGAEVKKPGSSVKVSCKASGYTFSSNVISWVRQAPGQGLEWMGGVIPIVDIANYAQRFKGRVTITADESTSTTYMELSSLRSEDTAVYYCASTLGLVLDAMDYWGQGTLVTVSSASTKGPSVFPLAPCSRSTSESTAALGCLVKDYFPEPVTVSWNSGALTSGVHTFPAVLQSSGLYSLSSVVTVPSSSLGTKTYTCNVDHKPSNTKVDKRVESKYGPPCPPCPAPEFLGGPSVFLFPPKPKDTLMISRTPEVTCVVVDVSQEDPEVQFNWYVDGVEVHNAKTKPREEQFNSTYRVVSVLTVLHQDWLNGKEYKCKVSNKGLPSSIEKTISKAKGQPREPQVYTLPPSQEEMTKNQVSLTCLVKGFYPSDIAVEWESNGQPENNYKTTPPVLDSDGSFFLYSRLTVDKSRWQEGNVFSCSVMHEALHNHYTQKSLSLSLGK
light: ETVLTQSPGTLSLSPGERATLSCRASQSLGSSYLAWYQQKPGQAPRLLIYGASSRAPGIPDRFSGSGSGTDFTLTISRLEPEDFAVYYCQQYADSPITFGQGTRLEIKRTVAAPSVFIFPPSDEQLKSGTASVVCLLNNFYPREAKVQWKVDNALQSGNSQESVTEQDSKDSTYSLSSTLTLSKADYEKHKVYACEVTHQGLSSPVTKSFNRGEC
notes: Human IgG4 (S228P, Eu numbering) / kappa anti-TGF-beta antibody; also called GC2008; copies: 2 + 2
Kd: 1400 nM
